1 substance from patent US20210108188A1 can be followed below.

This assay concerns the target APOBEC3B with C-terminal 3xHA tag (A3Bi-3xHA) (human) (UniProt Q9UH17). The experiment in a line: cell-based or functional assay.

“hnRNPUL1-Cas9n-UGI-NLS (heterogeneous nuclear ribonucleoprotein U-like fused to the N-terminal end of Cas9 nickase, in the BE3 vector in place of APOBEC1) (from UniProt Q9BUJ2 1-856; Q99ZW2 2-1368; P14739 2-84)”: the eGFP-positive 293T cells 72 hours post-transfection (chromosomal eGFP Leu202 reporter) amounted to 1.5% and the episomal eGFP Leu202 reporter editing frequency against the BFP-Cas9n/gRNA background was > 2 fold.
